Results taken from patent publication US20230002496A1 (STAIDSON BEIJING BIOPHARMACEUTICALS, published 2023).
Residue numbers refer to the chain shown, from its start.

T1: human GM-CSFRα, full length on cells (human, UniProt P15509 23-400)
T1 sequence: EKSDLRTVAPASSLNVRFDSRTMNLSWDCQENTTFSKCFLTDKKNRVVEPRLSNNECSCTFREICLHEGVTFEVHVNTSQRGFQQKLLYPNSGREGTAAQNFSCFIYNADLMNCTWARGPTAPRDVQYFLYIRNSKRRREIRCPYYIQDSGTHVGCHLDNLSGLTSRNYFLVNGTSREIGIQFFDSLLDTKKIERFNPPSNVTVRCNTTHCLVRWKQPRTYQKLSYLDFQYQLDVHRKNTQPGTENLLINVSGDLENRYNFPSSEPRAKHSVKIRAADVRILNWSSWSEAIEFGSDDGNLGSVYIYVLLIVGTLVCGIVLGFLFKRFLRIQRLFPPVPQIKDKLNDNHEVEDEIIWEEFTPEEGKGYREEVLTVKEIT

B1: E35-scFv HE31R (scFv, V domains shown)
VH: QMQLVQSGAEVKKPGASVKVSCKVSGYTLTRLSIHWVRQAPGKGLEWMGGFDPEDGETIYAQKFQGRVTMTGDTSTDTAYLELSSLRSEDTALYYCATGRYTSLATTYGFDYWGQGTLVTVSS
VL: EIVMTQSPATLSLSPGERATLSCRASQSVSSYLAWYQQKPGQAPRLLIYGASSRATGIPDRFSGSGSGTDFTLTISRLEPEDFAVYYCQQYDNWPYTFGQGTKLEIK
B2: E35-scFv HT28W (scFv, V domains shown)
VH: B1 VH with T28W, R31E
VL: B1 VL
B3: E35-scFv HT30M (scFv, V domains shown)
VH: B1 VH with T30M, R31E
VL: B1 VL
B4: E35-scFv HT30L (scFv, V domains shown)
VH: B1 VH with T30L, R31E
VL: B1 VL
B5: E35-scFv HT28S (scFv, V domains shown)
VH: B1 VH with T28S, R31E
VL: B1 VL
B6: E35-scFv HT30S (scFv, V domains shown)
VH: B1 VH with T30S, R31E
VL: B1 VL
B7: E35-scFv HT28N (scFv, V domains shown)
VH: B1 VH with T28N, R31E
VL: B1 VL
B8: E35-scFv HT30P (scFv, V domains shown)
VH: B1 VH with T30P, R31E
VL: B1 VL
B9: E35-scFv HT28L (scFv, V domains shown)
VH: B1 VH with T28L, R31E
VL: B1 VL
B10: E35-scFv HT30Q (scFv, V domains shown)
VH: B1 VH with T30Q, R31E
VL: B1 VL
B11: E35-scFv HT28K (scFv, V domains shown)
VH: B1 VH with T28K, R31E
VL: B1 VL
B12: E35-scFv HT30N (scFv, V domains shown)
VH: B1 VH with T30N, R31E
VL: B1 VL
B13: E35-scFv HT30E (scFv, V domains shown)
VH: B1 VH with T30E, R31E
VL: B1 VL
B14: E35-scFv HT28A (scFv, V domains shown)
VH: B1 VH with T28A, R31E
VL: B1 VL
B15: E35-scFv HT30K (scFv, V domains shown)
VH: B1 VH with T30K, R31E
VL: B1 VL
B16: E35-scFv HT28P (scFv, V domains shown)
VH: B1 VH with T28P, R31E
VL: B1 VL
B17: E35-scFv HT28G (scFv, V domains shown)
VH: B1 VH with T28G, R31E
VL: B1 VL
B18: E35-scFv HE31C (scFv, V domains shown)
VH: B1 VH with R31C
VL: B1 VL
B19: E35-scFv HT28C (scFv, V domains shown)
VH: B1 VH with T28C, R31E
VL: B1 VL
B20: E35-scFv HT28H (scFv, V domains shown)
VH: B1 VH with T28H, R31E
VL: B1 VL
B21: E35-scFv HT30Y (scFv, V domains shown)
VH: B1 VH with T30Y, R31E
VL: B1 VL
B22: E35-scFv HT30R (scFv, V domains shown)
VH: B1 VH with T30R, R31E
VL: B1 VL
B23: E35-scFv HT30V (scFv, V domains shown)
VH: B1 VH with T30V, R31E
VL: B1 VL
B24: E35-scFv HT30G (scFv, V domains shown)
VH: B1 VH with T30G, R31E
VL: B1 VL
B25: E35-scFv HT28V (scFv, V domains shown)
VH: B1 VH with T28V, R31E
VL: B1 VL
B26: E35-scFv HT28E (scFv, V domains shown)
VH: B1 VH with T28E, R31E
VL: B1 VL
B27: E35-scFv HT28M (scFv, V domains shown)
VH: B1 VH with T28M, R31E
VL: B1 VL
B28: E35-scFv HT30W (scFv, V domains shown)
VH: B1 VH with T30W, R31E
VL: B1 VL
B29: E35-scFv LS26L (scFv, V domains shown)
VH: B1 VH with R31E
VL: B1 VL with S26L
B30: E35-scFv HT30D (scFv, V domains shown)
VH: B1 VH with T30D, R31E
VL: B1 VL
B31: E35-scFv HT30A (scFv, V domains shown)
VH: B1 VH with T30A, R31E
VL: B1 VL

The binders below were run against T1, human GM-CSFRα, full length on cells (assay: cell-based or functional assay).

Going from B1 to B2, the “IC50, TF-1 cell proliferation” value falls from 0.31 µg/mL to 0.11 µg/mL (2.8-fold).

B3 and B4 are within 1.5-fold of each other in “IC50, TF-1 cell proliferation” value: 0.174 µg/mL for the first, 0.181 µg/mL for the second.

Going from B5 to B6, the “IC50, TF-1 cell proliferation” value rises from 0.11 µg/mL to 0.213 µg/mL (1.9-fold).

B7 and B8 are within 1.5-fold of each other in “IC50, TF-1 cell proliferation” value: 0.17 µg/mL for the first, 0.126 µg/mL for the second.

First: B9
Second: B10
The “IC50, TF-1 cell proliferation” value of the first is 1.9-fold lower: 0.1 µg/mL for the first, 0.192 µg/mL for the second.

B11 and B12 are within 1.5-fold of each other in “IC50, TF-1 cell proliferation” value: 0.217 µg/mL for the first, 0.178 µg/mL for the second.

B13 and B14 are within 1.5-fold of each other in “IC50, TF-1 cell proliferation” value: 0.132 µg/mL for the first, 0.13 µg/mL for the second.

Going from B15 to B16, the “IC50, TF-1 cell proliferation” value falls from 0.325 µg/mL to 0.093 µg/mL (3.5-fold).

Compared with B17, B18 is 2.2-fold higher in “IC50, TF-1 cell proliferation” value: 0.16 µg/mL for the first, 0.36 µg/mL for the second.

Going from B19 to B20, the “IC50, TF-1 cell proliferation” value falls from 0.12 µg/mL to 0.06 µg/mL (2-fold).

First: B21
Second: B22
The “IC50, TF-1 cell proliferation” value of the first is 2.5-fold lower: 0.142 µg/mL for the first, 0.35 µg/mL for the second.

B23 and B24 are within 1.5-fold of each other in “IC50, TF-1 cell proliferation” value: 0.158 µg/mL for the first, 0.199 µg/mL for the second.

B25 and B26 are within 1.5-fold of each other in “IC50, TF-1 cell proliferation” value: 0.08 µg/mL for the first, 0.091 µg/mL for the second.

B27 and B28 are within 1.5-fold of each other in “IC50, TF-1 cell proliferation” value: 0.11 µg/mL for the first, 0.151 µg/mL for the second.

First: B29
Second: B30
The “IC50, TF-1 cell proliferation” value of the first is 3-fold lower: 0.044 µg/mL for the first, 0.132 µg/mL for the second.

With B31 the “IC50, TF-1 cell proliferation” value was 0.215 µg/mL.
